Test [1] deals with FcgRIIb (human) (UniProt P31994). In words: flow cytometry (FACSCalibur), CHO-FcgRII-b-1 cells, pH 7.4, 100 ug/ml. (A flow cytometer gives signals particle by particle.)
The target in test [2] is FcgRI (human) (UniProt P12314). In words: flow cytometry (FACSCalibur), THP-1 cells, pH 7.4, 100 ug/ml.
Test [3] addresses FcgRIIa (human) (UniProt P12318). The experiment in a line: flow cytometry (FACSCalibur), K562 cells, pH 7.4, detection reagent alone.
For test [4], the target named is FcRn (UniProt P55899). In words: flow cytometry (FACSCalibur), FcRnGPI-CHO cells, pH 6.4, detection reagent alone.
The target of test [5] is FcgRIIb (human) (UniProt P31994). The experiment in a line: flow cytometry (FACSCalibur), CHO-FcgRII-b-1 cells, pH 7.4, detection reagent alone.

Where “and” joins values, the source holds several entries; their conditions need not be identical. Equal values may be shown once.

Chain of FcgRIIa (human) (P12318 34-317): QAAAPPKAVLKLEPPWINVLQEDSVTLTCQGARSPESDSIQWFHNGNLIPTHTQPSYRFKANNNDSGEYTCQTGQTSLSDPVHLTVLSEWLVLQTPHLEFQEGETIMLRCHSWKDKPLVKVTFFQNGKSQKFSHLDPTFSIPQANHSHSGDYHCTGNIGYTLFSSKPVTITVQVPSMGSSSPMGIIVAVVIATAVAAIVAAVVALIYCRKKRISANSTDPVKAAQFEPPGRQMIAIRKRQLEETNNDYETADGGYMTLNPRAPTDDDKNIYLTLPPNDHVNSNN

EGFR (Erbitux ®, Imclone) (antibody): the Fc Receptor Binding Geometric Mean in test [1] is 3; in test [2] it was 101 and 67.
For “R-PE conjugated anti-human IgG F(Ab')2 (Jackson ImmunoResearch, Cat.#109-116-170)”, the Fc Receptor Binding Geometric Mean in test [3] is 3; in test [4], 6 and 5; in test [5], 3.
